Source: the domain aggregation screens of Martell et al. (2025)

Assay: soluble fraction after stress (log2 fold change); higher = more stays soluble; pooled small domains, quantitative proteomics
Conditions: stress: 75 degC
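Note: 20 min heating vs room temperature control held 20 min.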

Sequence | soluble fraction (log2)
HMGVPELHKGEIVQAVVEKVLGEGLLRVNLKGMTVEAATSLRLNPGQQLLLRSEGIENGRQVLR | 0.275
HMGVQKGKDNALAVQQWIAERDATGDFGEYERRGIINRSALFDELGIPRSSMGSNDQIRQMIEAADVRWF | -0.47
HMGVREIIVQFLEQFDKPKSVQEIVEYVLRYRNTTENSIRSTMYSGSQFRQFDNGYFGLSDKSYPNEYIYA | -1.49
HMGVRLAPEVDRIPYGQMHPNLKKVKDLYEASYKAYVQALSSGNQALAKEKLEEFQSTKARYQRALSAYT | 0.305
HMGVRVEVDAVTPPGAMASGSVVFSDGESKKWSVDQFGRLAMTGGAPDYKPSDQDVMEFQQQLEQSL | 0.125
HMGVSAGQVRGLIRNLIAGEDKSKPLSDLALERELEKREIRISRRTVAKYRAELGIPNSDQRRYLP | -1.68
HMGVSLKEIQENLSLIDDAAQKLASGQGTVDDAVGMGNAGKDIYDNIEGYVSSPKEFINGVLSSV | -0.0252
HMGVSVNVQPAILDWAMQKAQMGNAGSSVIEMIAKWISGEKAPTFNQIEDVSKKISIPFGFFFLKEPPIE | -2.05
HMGVTGYPNPTREHITWDDARRIEVWNAYGVPVADLRFARGVLDVAGWPVGTYVARIDGGRSVRFVVI | -1.05
HMGVTVDEVHRNFESGMNVVHKKFGAGVVDSFDEGKIRINFDGVIKVFIADVLINSGMLESVSYTH | -0.832
HMGWEDLVGKTAVVKVALAPVGMVFFRGEFWSAISETGRIEPGEEVTISRIDGLKLYVTKKRIM | -3.89
HMGWEPTPVLVAARDISGGTVLDQDMLRVEAIPSRLVTPSIVRSDLLASVQDAKLLLPMKQGDLLNFNMLQ | -0.0591
HMGWVMLVIMSRGASEAQINAVVEKIRAAGLTEHLSKGIERTIIGAIGEERKLEPEVFELLPGVEQALHIV | -2.2
HMGYDSYDADTIPKLKIGSIVEHPKFGEGSIISKAGAEVTIAFKIKGVKKINLEYTSIKVLK | -1.67
HMGYGEQEQEAQKYLALHALMSQDPTLAKMYQAPNQYKLMSHVMEQNGIKNVNDYLTDPQQLP | -0.157
HMGYKDIDKLSGVDLAIYRFIVEHDEQIPYMRVRELARGAHVSNSSVMRFIRKIGYDSFPEFKVSLRS | -0.0854
HMGYPGLGSIGSKPLGDLLFQSKLFVKTKREFAEFKMANNNIVWGRRTQYLVRNYPLSVMEVFL | -0.0522
HMHAGQIISQKIKESGISISHVAKHLKVQRATLYNLFEREVWPAHRLRTIEALLHIDLSDLYP | -2.61
HMHANAALTPRQRLRLAQKIVDEEWTVAAAADYFRVSWPTAAKWARRYVELGEAGMADRSSRP | -2.55
HMHDEKHHQLANEIARKWAALRGNRDFAAADELKNLAAEAGVELQATKQAVGQGALAKLKENFDPVKLEAL | 0.192
HMHDLDALTGLSGEARSKVYEEGSVFVAGEMWSAKSDAVIPAGSSIRVVRREGFILVVEKDS | -2.48
HMHDYTTIIGVIELRLNKISYDNVQKRYRIGRSGISLIMERYRDSGLSLDDLKQMPAEKVVNLIYPKD | -2.88
HMHDYYDSIDAVTHDKSYESNLVFALKLGYTETQLQKALLKLGKKAREDQILEELIRIQKSSKA | -0.362
HMHEGNWTLPNPMPIGTTLTLPEHSRLYISNLAGQRVFETSATSVEIPLLPKGTYLLRLETMNGHTTRKIL | -0.106
HMHELKIEKVAEAPNGAMRLLLSDGSEWVLGVKSWNRLNLSLEKILDVNVLRALEKESQYHLLRTKALEL | -1.39
HMHFIMEYRIRAYVDELFESAPRTQRAYELKIELTQNLIDKYYALVSEGKSEQDAYNLTVMSIGDVREL | -3.01
HMHGEAVVVPNVKGLPMRQAENEIYKQSLKAVAIDSSYVKGMPPGAILEQNPAGGSKVKKGRTVYLTINMD | -0.268
HMHGERVVTAGQTVRVVFTSNGLQVSSEGKALAAGAVGDDIQVRAASGKVIRGTVTGPGVVQV | 0.233
